The values that follow come from the DeepSol protein solubility set.

The nature of the data set: soluble on expression in E. coli; label from the status in PepcDB or PDB records.
With “GSHMSQSFGRVLTIVHSDCALLERDGNISLLSLPVAERWLRQAQLTPGEAPVCAQPLLIPLRLKVSAEEKSALEKAQSALAELGIDFQSDAQHVTIRAVPLPLRQQNLQILIPELIGYLAKQSVFEPGNIAQWIARNLMSEHAQWSMAQAITLLADVERLCPQLVKTPPGGLLQSVDLHPAIKALKDE”, the “soluble on expression in E. coli” value is recorded as “soluble”.
On to “GSHMTTSSRYKTELCRTYSESGRCRYGAKCQFAHGLGELRQANRHPKYKTELCHKFKLQGRCPYGSRCHFIHNPTED”, for which the “soluble on expression in E. coli” value is reported as “soluble”.
“GSHSLRYFYTAVSRPGLGEPRFIAVGYVDDTEFVRFDSDAENPRMEPRARWMEREGPEYWEQQTRIAKEWEQIYRVDLRTLRGYYNQSEGGSHTIQEMYGCDVGSDGSLLRGYRQDAYDGRDYIALNEDLKTWTAADFAAQITRNKWERARYAERLRAYLEGTCVEWLSRYLELGKETLLRSDPPEAHVTLHPRPEGDVTLRCWALGFYPADITLTWQLNGEDLTQDMELVETRPAGDGTFQKWASVVVPLGKEQNYTCRVEHEGLPKPLSQRWEPLLEHHHHHH”: the “soluble on expression in E. coli” value is reported as “soluble”.
Turning to “GSLATCIGEKIEDFKVGNLLGKGSFAGVYRAESIHTGLEVAIKMIDKKAMYKAGMVQRVQNEVKIHCQLKHPSILELYNYFEDSNYVYLVLEMCHNGEMNRYLKNRVKPFSENEARHFMHQIITGMLYLHSHGILHRDLTLSNLLLTRNMNIKIADFGLATQLKMPHEKHYTLCGTPNYISPEIATRSAHGLESDVWSLGCMFYTLLIGRPPFDTDTVKNTLNKVVLADYEMPSFLSIEAKDLIHQLLRRNPADRLSLSSVLDHPFMSRNSSTKSKDLGTVEDSIDSGHATISTAITASSSTSISGSLFDKRRLLIGQPLPNKMTVFPKEG”, the “soluble on expression in E. coli” value was “soluble”.
“GSLDALGSQPIHLWQFLKELLLKPHSYGRFIRWLNKEKGIFKIEDSAQVARLWGIRKNRPAMNYDKLSRSIRQYYKKGIIRKPDISQRLVYQFVHPI”: the “soluble on expression in E. coli” value was “soluble”.
“GSLVPELNEKDDDQVQKALASRENTQLMNRDNIEITVRDFKTLAPRRWLNDTIIEFFMKYIEKSTPNTVAFNSFFYTNLSERGYQGVRRWMKRKKTQIDKLDKIFTPINLNQSHWALGIIDLKKKTIGYVDSLSNGPNAMSFAILTDLQKYVMEESKHTIGEDFDLIHLDCPQQPNGYDCGIYVCMNTLYGSADAPLDFDYKDAIRMRRFIAHLILTDALK”: the “soluble on expression in E. coli” value was “soluble”.
Turning to “GSMDCEVNNGSSLRDECITNLLVFGFLQSCSDNSFRRELDALGHELPVLAPQWEGYDELQTDGNRSSHSRLGRIEADSESQEDIIRNIARHLAQVGDSMDRSIPPGLVNGLALQLRNTSRSEEDRNRDLATALEQLLQAYPRDMEKEKTMLVLALLLAKKVASHTPSLLRDVFHTTVNFINQNLRTYVRSLARNGMD”, the “soluble on expression in E. coli” value is recorded as “soluble”.
As for “GSQPAKKTYTWNTKEEAKQAFKELLKEKRVPSNASWEQAMKMIINDPRYSALAKLSEKKQAFNAYKVQTEK”, the “soluble on expression in E. coli” value is “soluble”.
“GSQVQLVESGGGLVQAGGSLRLSCAASGYAYTYIYMGWFRQAPGKEREGVAAMDSGGGGTLYADSVKGRMTISRDKGKNTVYLQMDSMKPEDTATYYCAAGGYELRDRTYGQWGQGTQVTVSS”: the “soluble on expression in E. coli” value is on record as “soluble”.
With “GSSHHHHHHMGNVFDYEDIQLIPAKCIVNSRSECDTTVTLGKHKFKLPVVPANMQTIIDERIATYLAENNYFYIMHRFQPEKRISFIRDMQSRGLIASISVGVKEDEYEFVQQLAAEHLTPEYITIDIAHGHSNAVINMIQHIKKHLPESFVIAGNVGTPEAVRELENAGADATKVGIGPGKVCITKIKTGFGTGGWQLAALRWCAKAASKPIIADGGIRTNGDVAKSIRFGATMVMIGSLFAGHEESPGETIEKDGKLYKEYFGSASEFQKGEKKNVEGKKMFVEHKGSLEDTLIEMEQDLQSSISYAGGTKLDSIRTVDYVVVKNSIFNGDKVY”, the “soluble on expression in E. coli” value is given as “soluble”.
For “GSSHHHHHHSSGLVPRGSHMGSIIDAAAAAGPVVLMETAFRKAVESRQIPGAVIMARDASGNLNYTRCFGARTVRRDENNQLPPLQVDTPCRLASATKLLTTIMVLQCMERGLVDLDETVDRLLPDLSAMPVLEGFDDAGNARLRERRGKITLRHLLTHTSGLSYVFLHPLLREYMAQGYLQSAEKFGIQSRLAPPAVNDPGAEWIYGTNLDWAGKLVERATGLDLEQYLQENICAPLGITDMTFKLQQRPDMLARRADQTHRNSADGRLRYDDSVYFRADGEECFGGQGVFSSPGSYMKVLHSLLKRDGLLLQPQTVDLMFQPALEPRLEEQMNQHMDASPHINYGGPMPMVLRRSFGLGGIIALEDLDGENWRRKGSLTFGGGPNIVWQIDPKAGLCTLAFFQLEPWNDPVCRDLTRTFEHAIYAQYQQG”, the “soluble on expression in E. coli” value is “soluble”.
Take “GSSQISDMTRDGLANKALAVARTLADSPEIRQGLQKKPQESGIQAIAEAVRKRNDLLFIVVTDMQSLRYSHPEAQRIGQPFKGDDILKALNGEENVAINRGFLAQALRVFTPIYDENHKQIGVVAIGLELSRVTQQINDSRW”: the “soluble on expression in E. coli” value is “soluble”.
With “GSSWSAINPEYAARMRIQNRFKTGLDIAKYTAAIMRKDMAEYDADSSVYTQSLGCWHGFIGQQKLISIKKHLKTTNKRYLYLSGWMVAALRSDFGPLPDQSMHEKTAVSGLIEELYTFLRQADARELDLLFTGLDAARAAGDKAKEAELLAQIDNFETHVVPIIADIDAGFGNAEATYLLAKKMIEAGACCIQIENQVSDEKQCGHQDGKVTVPHIDFLAKINAVRYAFLELGVDDGVIVARTDSLGAGLTKQIAVTNEPGDLGDLYNSFLDCEEISESELGNGDVVIKREGKLLRPKRLASNLFQFRKGTGEDRCVLDCITSLQNGADLLWIETEKPHVGQIKAMVDRIREVIPNAKLVYNNSPSFNWTLNFRQQVFDAFVAEGKDVSAYDRNKLMSVEYDDTELAKVADEKIRTFQRDGSAHAGIFHHLITLPTYHTAALSTDNLAKGYFADEGMLAYVKGVQRQELRQGIACVKHQNMAGSDIGDNHKEYFAGEAALK”, the “soluble on expression in E. coli” value is listed as “not soluble”.
“GSTPHLVNLNEDPLMSECLLYHIKDGVTRVGQVDMDIKLTGQFIREQHCLFRSIPQPDGEVVVTLEPCEGAETYVNGKLVTEPLVLKSGNRIVMGKNHVFRFNH”: the “soluble on expression in E. coli” value is on record as “soluble”.
Turning to “GTGGAAATTYGAACAGGTGAATTTGAAGATATTGCGGGCATTACCGACATCTTTAACTTTTATATTGAACAAACCAATGCACGCTTTGAGGAATTTCCATTTACTCTGGAAAATCGTGAGGAATGGTTCTCTCAGTTTTCTAGAACCGCCAAATATCAAATATATGTGGCTGTAGAAAACGGTGTGTTGCAAGGTTTTGCATGTTCCCAAAAGTACAGAGCAATACCAGCTTTTGATGACACTGTAGAGGTGAGCGTTTATCTGGCACAAGAAGCTAAAGGGAAAGGTTTAGGTTCGAAGCTTTATACTCAGCTGTTTTCATCCATTCGTGCTTATGGCGTCCATCGTATATTGTCGGGTGTTGCATTACCAAATGACGCATCAGTAGCATTACATAAACGGTTTGGTTTCCGAGAAGTCGGCATTTCCAACGAATATGCCAAGAAACATGGGCAGTACATCAGCTCGTTGTGGTTAGAAAAAGCGCTTAACGTAGAGTCCGCTTTATAA”, the “soluble on expression in E. coli” value is listed as “not soluble”.
For the sequence “GTIITVTAQANEKNTRTVSTAKGDKKIISVPLFEKEKGSNVKVAYGSAFLPDFIQLGDTVTVSGRVQAKESGEYVNYNFVFPTVEKVFITNDNSSQSQAKQDLFGGSEPIEVNSEDLPF”, the “soluble on expression in E. coli” value is on record as “soluble”.
With “GTIPKPTLWAEPDSVITQGSPVTLSCQGSLEAQEYRLYREKKSASWITRIRPELVKNGQFHIPSITWEHTGRYGCQYYSRARWSELSDPLVLVMTGAYPKPTLSAQPSPVVTSGGRVTLQCESQVAFGGFILCKEGEDEHPQCLNSQPHARGSSRAIFSVGPVSPNRRWSHRCYGYDLNSPYVWSSPSDLLELLVPG”, the “soluble on expression in E. coli” value is reported as “soluble”.
Turning to “GTQGKVIKCKAAIAWKTGSPLCIEEIEVSPPKACEVRIQVIATCVCHTDINATDPKKKALFPVVLGHECAGIVESVGPGVTNFKPGDKVIPFFAPQCKRCKLCLSPLTNLCGKLRNFKYPTIDQELMEDRTSRFTCKGRSIYHFMGVSSFSQYTVVSEANLARVDDEANLERVCLIGCGFSSGYGAAINTAKVTPGSTCAVFGLGCVGLSAIIGCKIAGASRIIAIDINGEKFPKAKALGATDCLNPRELDKPVQDVITELTAGGVDYSLDCAGTAQTLKAAVDCTVLGWGSCTVVGAKVDEMTIPTVDVILGRSINGTFFGGWKSVDSVPNLVSDYKNKKFDLDLLVTHALPFESINDAIDLMKEGKSIRTILTF”, the “soluble on expression in E. coli” value is reported as “soluble”.
As to “GWRAKVAGIDPKGSDTHYSEGSSYTFYPYGQAVLLPNIFAHRDVGNTACPGRYGYAQMDNIRNIAKQKYDSIRSGSGATAPAAPSTPSKPAPAPAAPAAPSAPAAPAGTNPIGLLSQGSTPANAGSLVGLAVAAATSLGLIGNLNNIGDVPVIGGLKLSQLQPIIGKIVELLGNNDISRVWRDVNSFAGAALGNARSPIAHYASATGTPIDYALFDNGIVISNPETGTNALWGTIGDLWAQQGFEAGPLGLPTSSVFEVDGLQRVNFQHGYITFNPTTSAVDIQVQ”, the “soluble on expression in E. coli” value is recorded as “not soluble”.
As for “GYDGVRIGQGYDIHQIRVGPPEDIVADTTADTAANTADPNKQSFKRLTIGGVPVETISVLSHSDGDVIFHALVDALLGGMSCSDLGTLFPDGSPKYKNKNSLSFLRYARLLLYKRNYAIANVDIIVIAEVPKISPIREEIVRNISSALGISESQVSLKGKTHEQLGPVGQKKAIECFANALLIRKQS”, the “soluble on expression in E. coli” value is reported as “soluble”.
“HDLALSGNAYKVRLFLSLIGREATLRPVDFLNREHKTQAFLRMNPRGQIPVLEDGELQLGDSHAILVYLARRHADPVWYPLDPVSQGRIAYWLSYSANEVQNGPASARLITRFNLPLDREQTHQRGLEVLRLVDRHLAEHRWLAQGEQPSIADVALYPYLALAPEGGLALDHYPALNAWIARIRALPGYIPMPGL”: the “soluble on expression in E. coli” value is listed as “not soluble”.
For “HGSMEVPVSRAYGCFQEGPEAPISSACREAKRVGGAQAMYDWNAINQTPAGDNHQALVPDGALCGGGKAEFKGFNLARSDWRATSIVPDAKGDYEFVFQATAPHATKYFRLYVTRDGWNPSTPLKWSDLTLFGAYNGNPPLDVGNRYRMTMRLPAGKTGRHIIYSVWKRSDSEEAFYACSDVSFGH”, the “soluble on expression in E. coli” value is reported as “not soluble”.
Regarding “HGSMTDTYLHETLVFDNKLSYIDNQRDTDGPAILLLPGWCHDHRVYKYLIQELDADFRVIVPNWRGHGLSPSEVPDFGYQEQVKDALEILDQLGVETFLPVSHSHGGWVLVELLEQAGPERAPRGIIMDWLMWAPKPDFAKSLTLLKDPERWREGTHGLFDVWLDGHDEKRVRHHLLEEMADYGYDCWGRSGRVIEDAYGRNGSPMQMMANLTKTRPIRHIFSQPTEPEYEKINSDFAEQHPWFSYAKLGGPTHFPAIDVPDRAAVHIREFATAIRQGQ”, the “soluble on expression in E. coli” value is listed as “soluble”.
Turning to “HHHHHGSIMKVLRKGDRGDEVCQLQTLLNLCGYDVGKPDGIFGNNTFNQVVKFQKDNCLDSDGIVGKNTWAELFSKYSPPIPYKTIPMPTANKSRAAATPVMNAVENATGVRSQLLLTFASIESAFDYEIKAKTSSATGWFQFLTGTWKTMIENYGMKYGVLTDPTGALRKDPRISALMGAELIKENMNILRPVLKREPTDTDLYLAHFFGPGAARRFLTTGQNELAATHFPKEAQANPSIFYNKDGSPKTIQEVYNLMDGKVAAHRK”, the “soluble on expression in E. coli” value is reported as “soluble”.
